Source: US20180030546

Target: RAP1 (RAP1-GTPase) (UniProt P62834)
Sequence (P62834 1-181): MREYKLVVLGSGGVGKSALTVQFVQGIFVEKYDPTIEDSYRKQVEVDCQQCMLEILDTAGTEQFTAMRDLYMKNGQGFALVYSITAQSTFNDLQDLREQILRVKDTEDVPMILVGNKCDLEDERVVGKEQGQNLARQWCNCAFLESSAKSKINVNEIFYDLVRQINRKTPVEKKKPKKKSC

## Rap1GAP (RAP1 GTPase Activating Protein)
  RAP1 activity (active GTP-bound RAP1 pull-down, immunoblot with RAP1 antibody): Enforced Rap1GAP expression in human GICs inhibited RAP1 activity
